{"source": "patent US20130122568", "experiment_in_all_cases": "cleavage_in_vitro", "key": {"[1]": {"biological_target": "T1, BamHI (Bacillus amyloliquefaciens) (UniProt P23940)", "T1 sequence": "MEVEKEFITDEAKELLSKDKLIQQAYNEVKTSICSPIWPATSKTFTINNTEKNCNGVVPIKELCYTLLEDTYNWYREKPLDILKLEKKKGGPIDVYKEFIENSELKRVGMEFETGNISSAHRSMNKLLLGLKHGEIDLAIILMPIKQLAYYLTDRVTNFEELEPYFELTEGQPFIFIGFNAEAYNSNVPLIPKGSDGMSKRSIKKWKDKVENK", "conditions": "NEB3, 37 C"}, "[2]": {"test_system": "T2, BsmBI (Bacillus stearothermophilus)", "T2 sequence": "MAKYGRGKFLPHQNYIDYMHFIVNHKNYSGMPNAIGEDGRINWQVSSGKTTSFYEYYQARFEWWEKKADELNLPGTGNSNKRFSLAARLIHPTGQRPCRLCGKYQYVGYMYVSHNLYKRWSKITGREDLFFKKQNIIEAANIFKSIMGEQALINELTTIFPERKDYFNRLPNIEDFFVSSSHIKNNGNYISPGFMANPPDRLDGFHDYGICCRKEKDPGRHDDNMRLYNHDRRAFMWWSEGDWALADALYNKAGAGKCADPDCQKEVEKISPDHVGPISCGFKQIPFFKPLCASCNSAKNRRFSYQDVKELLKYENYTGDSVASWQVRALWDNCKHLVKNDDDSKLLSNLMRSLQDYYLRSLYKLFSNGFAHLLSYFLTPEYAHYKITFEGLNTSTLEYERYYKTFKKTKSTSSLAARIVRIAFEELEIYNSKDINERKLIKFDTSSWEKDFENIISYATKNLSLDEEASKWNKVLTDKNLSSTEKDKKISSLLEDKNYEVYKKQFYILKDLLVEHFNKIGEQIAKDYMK", "conditions": "NEB3, 55 C"}, "[3]": {"test_system": "T3, BsmBI-HF N185Y/R232A (Bacillus stearothermophilus)", "T3 sequence": "T2 sequence with N185Y, R232A", "conditions": "NEB2, 55 C"}, "BstXI-HF N65A": {"test_system": "BstXI-HF N65A", "conditions": "NEB2, 55 C"}, "[4]": {"biological_target": "T4, HindIII (Haemophilus influenzae Rd) (UniProt P43870)", "T4 sequence": "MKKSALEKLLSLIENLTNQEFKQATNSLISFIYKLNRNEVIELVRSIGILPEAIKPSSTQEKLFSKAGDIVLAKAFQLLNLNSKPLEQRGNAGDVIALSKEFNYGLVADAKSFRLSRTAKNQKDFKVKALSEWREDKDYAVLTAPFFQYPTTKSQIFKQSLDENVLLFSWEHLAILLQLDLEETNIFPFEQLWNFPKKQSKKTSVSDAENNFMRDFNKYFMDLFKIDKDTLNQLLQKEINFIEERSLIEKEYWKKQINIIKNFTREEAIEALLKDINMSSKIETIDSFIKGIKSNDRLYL", "conditions": "NEB2, 37 C"}, "[5]": {"biological_target": "T5, PstI (Providencia stuartii 164) (UniProt P00640)", "T5 sequence": "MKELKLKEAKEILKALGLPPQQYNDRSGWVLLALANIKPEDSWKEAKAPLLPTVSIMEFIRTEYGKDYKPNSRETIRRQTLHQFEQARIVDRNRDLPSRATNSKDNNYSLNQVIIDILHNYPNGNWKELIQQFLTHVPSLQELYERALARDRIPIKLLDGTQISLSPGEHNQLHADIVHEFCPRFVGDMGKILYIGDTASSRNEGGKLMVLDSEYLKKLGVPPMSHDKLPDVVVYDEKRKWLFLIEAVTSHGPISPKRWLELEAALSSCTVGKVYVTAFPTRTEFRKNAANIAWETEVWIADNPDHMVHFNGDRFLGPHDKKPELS", "conditions": "NEB3, 37 C"}, "[6]": {"test_system": "T6, SbfI (Streptomyces species Bf-61)", "T6 sequence": "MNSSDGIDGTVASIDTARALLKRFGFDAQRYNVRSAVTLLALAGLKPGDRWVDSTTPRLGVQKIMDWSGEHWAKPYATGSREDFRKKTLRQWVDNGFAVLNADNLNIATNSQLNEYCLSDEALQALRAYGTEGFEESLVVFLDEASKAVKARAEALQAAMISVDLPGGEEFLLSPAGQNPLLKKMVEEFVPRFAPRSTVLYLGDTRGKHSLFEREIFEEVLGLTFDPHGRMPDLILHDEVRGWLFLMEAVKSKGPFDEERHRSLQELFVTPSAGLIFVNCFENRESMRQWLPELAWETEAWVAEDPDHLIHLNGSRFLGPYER", "conditions": "NEB1, 37 C"}, "[7]": {"biological_target": "T7, ScaI-HF H193A/S201F (Streptomyces caespitosus) (UniProt O52691)", "T7 sequence": "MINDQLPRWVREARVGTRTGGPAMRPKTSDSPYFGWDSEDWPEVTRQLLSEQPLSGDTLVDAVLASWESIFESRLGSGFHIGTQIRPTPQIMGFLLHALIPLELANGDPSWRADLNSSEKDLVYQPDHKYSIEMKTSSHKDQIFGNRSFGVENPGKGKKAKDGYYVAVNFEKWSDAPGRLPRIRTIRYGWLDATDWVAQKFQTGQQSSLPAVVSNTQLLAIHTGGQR", "conditions": "NEB2, 37 C"}, "[8]": {"test_system": "T8, SphI (Streptomyces phaeochromogenes)", "T8 sequence": "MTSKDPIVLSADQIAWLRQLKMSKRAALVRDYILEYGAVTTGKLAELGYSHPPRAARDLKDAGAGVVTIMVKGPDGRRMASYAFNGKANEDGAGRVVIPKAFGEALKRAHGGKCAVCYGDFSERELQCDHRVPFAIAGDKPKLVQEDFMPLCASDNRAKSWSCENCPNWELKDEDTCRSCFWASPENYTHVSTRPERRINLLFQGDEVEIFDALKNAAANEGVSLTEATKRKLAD", "conditions": "NEB1, 37 C"}}, "note": "Where a chain is given by its changes, count along the chain named."}
{"substance": "lambda phage DNA", "values": [{"measurement": "activity (fidelity index)", "setting": "[1]", "value": 32}, {"measurement": "activity (fidelity index)", "setting": "[2]", "value": 120}, {"measurement": "activity (fidelity index)", "setting": "[3]", "value": "> 500"}, {"measurement": "activity (fidelity index)", "setting": "BstXI-HF N65A", "value": "> 250"}, {"measurement": "activity (fidelity index)", "setting": "[4]", "value": 250}, {"measurement": "activity (fidelity index)", "setting": "[5]", "value": 120}, {"measurement": "activity (fidelity index)", "setting": "[6]", "value": 32}, {"measurement": "activity (fidelity index)", "setting": "[7]", "value": 1000}, {"measurement": "activity (fidelity index)", "setting": "[8]", "value": 64}]}
